Patent US20230293704A1, “Compositions and Methods for Tendon Regeneration” (University of Rochester, priority 2022, published 2023)
No end group written: not given here. *: point of attachment. PSMA‑b‑PS = poly(styrene-alt-maleic anhydride)-b-poly(styrene) polymer; Alloc = C=CCOC(=O)*

T1: TRAP (Homo sapiens, UniProt P13686)
T1 sequence (P13686 22-325): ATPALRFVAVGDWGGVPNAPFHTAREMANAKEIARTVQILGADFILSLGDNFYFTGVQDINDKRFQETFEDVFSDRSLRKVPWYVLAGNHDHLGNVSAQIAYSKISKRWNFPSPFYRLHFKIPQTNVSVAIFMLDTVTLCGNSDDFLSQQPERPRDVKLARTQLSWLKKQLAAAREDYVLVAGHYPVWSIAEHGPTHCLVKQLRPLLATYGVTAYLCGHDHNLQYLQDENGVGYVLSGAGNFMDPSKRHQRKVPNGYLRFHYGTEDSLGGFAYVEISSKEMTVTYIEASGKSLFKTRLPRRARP


What was measured:
S100a4 = conditions: Sack et al. 2011; cited from earlier work
TRAP [1] = target: T1, TRAP; assay: In vitro binding assay of TBP-NPs and SCP-NPs to TRAP (fluorescamine readout); conditions: NPs exposed to TRAP in serial dilutions, incubation 2 hours; read-out: Binding Affinity (Kd)
Description: (§1) Polymer-peptide conjugates were self-assembled into nanoparticles via solvent exchange from dimethylformamide (DMF) to water using a syringe pump. Dynamic light scattering (DLS) was used to characterize the size and zeta potential of TBP-NPs and SCP-NPs. An in vitro binding assay that involved exposure of TBP-NPs and SCP-NPs to TRAP in serial dilutions was used to determine the binding affinity of TBP-NPs and establish their efficacy for in vivo applications. Specifically, after exposure of TBP-NPs to TRAP and incubation for 2 hours, fluorescamine, a spiro compound that reacts with primary amines to form highly fluorescent compounds, was added to the reaction. The protein-dye complex was excited with UV LED (365 nm) and emitted at 470 nm on a Cytation 5 Imaging Multimode Reader. The binding affinity (Kd) and maximum binding (Bmax) were then calculated to determine the efficacy of the synthesized TBP-NPs (FIG. 1 C-D).

[2] = Dynamic light scattering characterization of nanoparticle size; type: physicochemical; conditions: nanoparticles, DLS
Description: as §1

TRAP [3] = target: T1, TRAP; conditions: known from the art; cited from earlier work
[4] = target: tartrate resistant acid phosphatase (TRAP); assay: in vitro binding assay, NPs exposed to TRAP in serial dilutions, 2 h incubation, fluorescamine fluorescence readout

| Molecule | Diameter (nm) [2] [nm] | Dispersity for Size [2] | also measured |
| --- | --- | --- | --- |
| O=C(Nc1ccc([N+](=O)[O-])cc1Cl)c1cc(Cl)ccc1O [Niclosamide] | – | – | effect on S100a4 gene and protein expression (S100a4): inhibit the S100a4 gene and protein expression |
| ARO-TBP-Alloc: TBP-NPs from anhydride ring-opening conjugation of Alloc-protected-lysine TBP to PSMA-b-PS polymer, then self-assembly (TPLSYLKGLVTVG-OH; not fully specified (residue 7, N-terminus); printed as TPLSYLKAllocGLVTVG; also: ['conjugated to PSMA-b-PS polymer by anhydride ring-opening']) | 32 ± 2 | 0.1 ± 0.1 | Kd (TRAP [1]): 186 µM |
| CDI-TBP-Alloc: TBP-NPs made by carbodiimide coupling of Alloc-protected-lysine TBP to pre-formed PSMA-b-PS nanoparticles (TPLSYLK(Alloc)GLVTVG-OH; also: coupled to PSMA-b-PS nanoparticle by amide bond (carbodiimide), site not given here) | 33 ± 3 | 0.2 ± 0.1 | Kd (TRAP [1]): 468 µM |
| CDI-TBP: TBP-NPs made by carbodiimide coupling of free (unprotected) TBP to PSMA-b-PS nanoparticles (TPLSYLKGLVTVG; not fully specified; also: ['coupled to PSMA-b-PS nanoparticles by carbodiimide amide bond']) | 66 ± 3 | 0.4 ± 0.1 | – |
| TPLSYLKGLVTVG [TBP, TPLSYLKGLVTVG (SEQ ID NO: 1), peptide known to home to TRAP] | – | – | affinity for TRAP (TRAP [3]): sub-nanomolar affinity |
| TPLSYLK(Alloc)GLVTVG (not fully specified; printed as TPLSYLKAllocGLVTVG; also: ['coupled to PSMA-b-PS nanoparticles by carbodiimide amide bond']) | – | – | Kd [4]: 468 µM |
| {PSMA‑b‑PS}-TPLSYLKGLVTVG-OH (not fully specified (residue 7); printed as TPLSYLKAllocGLVTVG; also: Lys7 Alloc-protected during conjugation, removal not given here) | – | – | Kd [4]: 186 µM |
